{"source": "paper doi:10.1101/2023.12.22.573000", "target": "T1, RIG-I (recombinant) (human? (GeneID 23586), UniProt O95786 1-925)", "T1 sequence": "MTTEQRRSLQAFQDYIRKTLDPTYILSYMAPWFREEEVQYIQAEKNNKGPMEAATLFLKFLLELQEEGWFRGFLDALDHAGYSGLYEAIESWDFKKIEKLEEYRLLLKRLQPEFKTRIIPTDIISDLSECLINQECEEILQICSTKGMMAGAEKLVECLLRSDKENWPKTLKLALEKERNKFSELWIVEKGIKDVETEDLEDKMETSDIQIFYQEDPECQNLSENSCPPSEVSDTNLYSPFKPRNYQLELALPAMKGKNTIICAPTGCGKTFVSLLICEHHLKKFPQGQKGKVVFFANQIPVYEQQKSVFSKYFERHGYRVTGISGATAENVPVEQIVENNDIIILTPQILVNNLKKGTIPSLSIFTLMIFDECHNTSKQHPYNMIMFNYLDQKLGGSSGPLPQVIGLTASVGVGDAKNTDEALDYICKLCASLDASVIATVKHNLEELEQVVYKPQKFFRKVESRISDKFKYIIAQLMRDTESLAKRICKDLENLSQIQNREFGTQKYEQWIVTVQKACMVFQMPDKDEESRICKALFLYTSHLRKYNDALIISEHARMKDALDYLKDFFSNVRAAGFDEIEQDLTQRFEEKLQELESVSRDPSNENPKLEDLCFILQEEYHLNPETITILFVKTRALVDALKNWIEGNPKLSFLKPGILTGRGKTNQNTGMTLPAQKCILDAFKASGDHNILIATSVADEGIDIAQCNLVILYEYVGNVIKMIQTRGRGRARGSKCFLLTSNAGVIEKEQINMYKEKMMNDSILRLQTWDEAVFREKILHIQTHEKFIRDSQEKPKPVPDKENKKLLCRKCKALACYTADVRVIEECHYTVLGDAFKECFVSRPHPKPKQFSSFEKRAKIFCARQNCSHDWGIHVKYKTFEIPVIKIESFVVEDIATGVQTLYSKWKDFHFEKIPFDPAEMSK", "test": "EMSA"}
{"binder": "5'-pppG synthetic 24 bp dsRNA (dsRNA, 5'-ppp on sense strand only) RNA 1: GGCAAAAGCAGGGUGACAAAGACA RNA 2: UGUCUUUGUCACCCUGCUUUUGCC", "values": [{"measurement": "Kd", "value": 0.94, "unit": "nM"}]}
